According to the domain aggregation screens of Martell et al. (2025):

Assay: soluble fraction after stress (log2 fold change); higher = more stays soluble; pooled small domains, quantitative proteomics
Conditions: stress: 50 degC
Method in brief: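 Custom libraries of small protein domains were pooled and measured in a high-throughput format, with quantitative proteomics as the read-out. Each library was stressed at 50°C. The value is the log2 fold change in the amount of each protein that stays soluble after stress, used as a measure of aggregation propensity; higher values mean more of the protein stays soluble.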

| Sequence | soluble fraction (log2) |
| --- | --- |
| HMGRTGTVVVSPSLNVRTGPWGEIIGSLYNGNKVEIIGSSGDWYQISFGGKTAYVHSDYVVDGG | -0.51 |
| HMGSDAFDISKLNLVGKTKESAESLLKENGFSVDTKEEASDTAAKGTVISYSPTKPKNGERVTLTVSSGK | 0.337 |
| HMGSDQEAAMARQDRLSTLVDYVVERGSVHVDDIVADLGVSPATVRRDLDALAAQQLIIRTRGGATANHT | 0.0263 |
| HMGSGKGAAHTILGISADASDDEIKAAWRKLVQENHPDKLVSQGLPDEFVQAATDRLRLINTAYQSMLNRP | -0.0378 |
| HMGSGLAAAEKIRKAHPEIKIVVATSLIDTQVLARAKAVGADSLWYKDGDEGTLMQVVRRTMAGDHIFP | -0.00704 |
| HMGSIGAMLSSPELYGKLATNPATRGFLSQPDFIAMLTDVQKNPDKFGSYMSDPRMMQVLSVALG | 0.118 |
| HMGSIRDIIVQYLSKFDDPQPAAKIVEYVQQYRDTTESSIRSSMGSGDQFVQFSGGLYGLKDKTYAAWYSI | -0.321 |
| HMGSLKISNPVKDTLWIQGVDGLKSIEIYSSTGQLVKTILGNQGDVSSLPKGVYFLKINTPSESLTAKIIK | -0.0698 |
| HMGSLPPPKDGTTIYVVKPGDSLWRISGKFFGNPLFWPRLWEINPNIDNPNKIYPGDVISLKP | 0.00421 |
| HMGSLVKLQSAAELHQAGRSAEAVPILLEVLATNPRLVDGWEILANALEKLGRLDEALAALKKTVALSPPG | -0.694 |
| HMGSNENTIREYFDSLIASASKREIMDANPTMSQRTVERILQKLQAEGYVEKIGAARSTRYRRA | -0.178 |
| HMGSQLYTLEVEADEKISLIENNPLLIQKIYLKDNNLFSYKIASSSKTEIASIEKELEKNPSIKRLETA | -0.181 |
| HMGSQQIEEGMRRLVASGALRPGASVPSVRDLARDLQVNPATVVRAYQRLVDAGLLVVRRGEGTFVAE | -0.588 |
| HMGSSLLSPKEREVLQLLAGNLSNKQIALAMGVSDETIKWHLRNLFGKLNAGGRKHLIDRARMLGLLAAA | -0.6 |
| HMGSVHDAATDRIREMILGGQFEPGERLRQDDLATSLGVSTMPVREALRQLQAEGLVVFYPRKGAVVAR | 0.142 |
| HMGTAEDYLLPRRAEILSIIRDHEFANFDLIRRRFLAVNERTLRYDLKKLSDLGLIKKLGKTRGVYYRAAK | -1.49 |
| HMGTAVKAPMPGTILKVNVTAGQSVKAGDIMFILEAMKMENEIVAPSDGTVSQVVAAKGSSVATDDVLAYL | -0.0338 |
| HMGTDGLKDIVLEILKEHPNQLAELIDGKQKVLGFLVGQVMKKTNGAANPKEVNEIIQGEIKK | -0.0707 |
| HMGTELSYSEFLNKVEAGEVTNVTIRGPEITFQTGNSSYTTYAPDDPKLIEHLTAKGVAIKAGP | 0.216 |
| HMGTGELLVHVIGAVHSPGVVRLPTGARVVDAIDAAGGAREDAQTEQLNLARLVDDGEQVRVPVVGESVD | -0.0181 |
| HMGTGIKQVNVVSVIGQDEETAKTTLTNLGLKVNVTYATSTSDNGKVTKQSIDAGKTVDEGTSVTITVNKV | 0.241 |
| HMGTHSAEQVRAAIRAIVAAEDAANPLSDARITELLAMRGIAAARRTVMKYREQLGIPSSAKRRR | -0.343 |
| HMGTHVVQEGEYLDLIIEKTIPGSPIRKDLLRKAFVKLNPSAFGGRGNPNYIFARKKLKVPSVEDLKAVIF | -0.0708 |
| HMGTIEEYSKYLINQYFDSLKKPMDAMTTSEKIEIVKSLDKKGIFNLKGSVGELAKRFNTSEKTIYRYLSS | 0.0367 |
| HMGTKRWELPRRVQQMATQHGKSISTAAAEELVSRSGENTRMLDNDLVKLAQMVEAPQIELADVERWIVR | 0.221 |

| Sequence | soluble fraction (log2) |
| --- | --- |
| HMGTLPSLAPSGEKTVRLPNLAGWSLRETMEILQKGGLQLLPIGSGISFKQSPPPGTTLNEGDAVTVWF | 0.0292 |
| HMGTNTTGWIKIADDWKYIDSNGEYTVNDWRQSADGGWYYLGYNGNMLKNQTTPDGYYVDAEGLWDGMSPA | -0.709 |
| HMGTPEQVVVSSVLKETNEIVLKWPADGFMAKYKMDNLNLNFEPVHGQGVMGYFIGSRLIKLELV | -0.251 |
| HMGTPSAEELAFSAQKGNAVMRIMEIREKYIENGGQISDEERNEIERLIAIYYPKASIFDYLPMMG | -0.136 |
| HMGTSFEDIDRAVKSVRKPETDEAEKLHAGKTFKDIAETELFQKLTESFAGISDRVNEVIDLYTARAAE | 0.143 |
| HMGTSSAEIAAELRAQIFAGELRPGEMLPSAREITGTWNVAIATASRVHALLRSEGLATPVPGVGTVVAT | 0.0105 |
| HMGTTAWISTKTANGSVNIRTGPGTGYGVIGWALNGDKLEVLSRGTSWHYVKLVKNGKIGYVSASYVSFTQ | -0.193 |
| HMGTTKGVVDVTVPNGRASQHVKLVVIDDDGGRVVYDGTNAPGDRIVKSVSGSGNVRVQIYLNNALVQEQS | -0.2 |
| HMGTTMLEVPNFVGEVFKEIDPEKYPNLRLVDSDYTYSNEYEAGKVISQDPVARTQVAEGSTVKLVIS | 0.133 |
| HMGTVISVDKARSIALAKVPGASANDIRIHLDRDDGRQIYEGEIYYNRMEYEFEIDASTGTIIEWSAEHW | -1.73 |
| HMGTVQSVDRALLLLSEIGREPGGLVDLSTRVRLATSTTGRILATLEHAGAVVRGDDGIYHIGPLVHGMVS | -0.839 |
| HMGTYSKQDLLQLIGRYPDGIGKREINLAFSKGTKIRNLLNIELNELLNERLITLSQGGLYIKP | -1.56 |
| HMGVAFAPVEKIKHTKTGNELYAVKLAGRVEAEVFGQLRQKAKEYDGYYSKFSRAFLFSTPEDAEAFRAE | 0.0208 |
| HMGVDIAEHDGQPAVSIRKGAAESVAQWVKDQGGTFPQEVEMTVQNVARAGGTPLVVARGRDVLGVIYLKD | 0.0501 |
| HMGVDKLTPREREVLALMAQGASNREIEGKLVLTAGAVSKHVANVFMKLGFSPEDENRRVKAVLAWLRTK | -1.05 |
| HMGVGIEALAVEVDRIRQVLTGGGALSDIQLFSQLKALGEVKTALSSMTDPRARELEKRVAQLLEASLRT | -0.0594 |
| HMGVKHKHKGAGELLAALRTMFPNSSVSTLRKMLTQGRVVLNGEVVHRAKHELTDGDTIEVLERQRAER | 0.209 |
| HMGVKIELNENEQAIFAAMQKQVEAVLPDLRAQFADMSNKAWDNSVKTLTKNNLLKVSKEAEILFIRL | -0.718 |
| HMGVKTDKYYYQMATETRVNKHYGLSNQYIATLISEYPRSPLIPNASILSKKNNADLALIDQSINQR | -0.397 |
| HMGVLSPRQSQILALVAQGLGNREIAERLHIAPTTARDHVQAIMRRLNVNSRAAAAVMGVKLGLI | -0.625 |
| HMGVNEGVNKLFKTIQETPGKRMPYYALATDVPEKTIERWLKQLREEGKIEFKGSAKTGGYFVIDK | 0.0649 |
| HMGVRDIRIFERNNSFFVNAEIRGEAQLSVPITRTDYQLFKENKIDALSLVEKYYAEELNASNEMK | -0.164 |
| HMGVSLNELAYRRFKQALVTLSYKPGEYLNTAQVMNDLDMGRTPINQAIHRLANEGLLQVIPRKGVMVS | -1.79 |
| HMGVTDLFAVLGFPRSPWLDAEELKQRHHALMADEASANSSPTILNEARRTLQNPALRIRHFLALEFPDH | -0.397 |
| HMGVYDLIYLGYGINVEKEELVDQNISIIRRYANIFDPNGDIKGSTNPTYASNTAVLFNEAKFIIDGYD | -3.65 |

| Sequence | soluble fraction (log2) |
| --- | --- |
| HMGWQPDPLTTRERLVAELATQASNAQIAEQLHLSVRTVEGHLAHVYTKLGITTRRELPAALAGAR | -0.891 |
| HMGWTTPAGIAVGMDKSVLQDAYGKEDDTFQDKGILYYQYFVHPSRMSGLSFGIKNDKIVSITAYMD | -2.06 |
| HMGYDDLEPFDANGRLRWSDQELVLAFGRHRGATLRTLELNDPSYLRWLLSGNGPLEQQDIQRLEQILES | -1.26 |
| HMGYDLLFQQALGFHEQGRLNEAENIYRQILETAPNNPDILNLLGLIAQQKGLHAQAVDYFYQAIRL | -1.41 |
| HMGYDVAEVKFRLIKLLRDSKIGISGVEISERLGINRVTMTKYLNIFSAEGVIGEKNIGNVNLWFVYEGIE | -1.68 |
| HMGYQLSLEAQSQLKALGLTSEYITRILDEADNRQPIPGTSRTVYSLNGYQVEFSHSDQQVIRIARG | 0.0139 |
| HMGYSDEIGEFIKKLRTENHLTQKEFADKYGVTYQAVSKWENGKNLPDMSLIKQMSEDFNIGIDELLDGEK | -0.00754 |
| HMGYTLDVAHGVTEDMNFSEAFATAREEVGPGGIFYWHGKPYGTYYENEWNAMDEEDKAEYWDAVGRTTA | -0.149 |
| HMHANSDVEQLMQMGIQRLNFQRYSDALLIFNQIIENFPDYAEAWNKRATLHYLLGNLDKSIADIEQTLE | -2.54 |
| HMHAPIAELKKVFKEEFADQEVTVRQLAGSVLLSGNVKTAELRENLESVAKQFFPRVINNLKLI | -0.000214 |
| HMHDAKAEIIRLSALLTEYQRSYYIDGHSQVSDLEYDRLFDRLVALETSHPELREADSPTQRV | -0.855 |
| HMHDAKTQLQEEAARRGLPAPVYTRIGQEGPDHAPRFRVRADVGPHQAEAVAGSLKLAQAEAARAILRQMP | 0.228 |
| HMHDITPAVAETFKQLRAERGLSLSQAAQLTGVSKAMLGQIERGQSSPTVSTLWKIATGFNVAFSVFL | -2.4 |
| HMHDLGEQIIEKLRASGGISTLTDKSDPDAIYRQFKVSKKKYKQALGTLYKSRRITLAPNQIKLA | -0.129 |
| HMHDPLATLTPREHEVMSLMAEGRTNAAIAQALVIGTGAVEKNVTSIFQKLGLDDSGTDHRRVLAVLAWLQ | -2.14 |
| HMHDRRSGKVKWYSDRKGYGFIDLDGGEVFIHRSALIAFGALRLQAEDIITITVRETDRGLVVDQLFGIER | -2.03 |
| HMHEAILNQIRNEELMLYIGELSDAQQDVILLKYFHQMTFKEIAESFSIPISTVKTRHTAALKKLSTLWK | -0.16 |
| HMHESLAEVAARKLRALIVTGELAPGERVTEAGLTDLLEISRTPAREAIRILSSEGLLVVFPNRGAEVV | -0.822 |
| HMHEYSDIEHRILDAAREVFIRKGYDSATMGDIALLAGMSRTSVNYYFRNKERLFEAIFEEII | -2.08 |
| HMHFDQILAHAMDERGMNAVQLASLTGLSSGAISRYLAGDRQPTVYSIQQIAKALGVSADYLVG | -0.884 |
| HMHGEAEFLDATAVVMEKLNPGGLVKIKGEIWQAVSKDGHTIQEGEKVRVFERQGITLLVGHF | -0.171 |
| HMHGTIHSAAYGGDIEAVKKFLAAGADVNANGGGRTPLDLAIQVKNTEIADLLRKHGGKTGDELKA | 0.0271 |
| HMHGYLSDPAARLIRARRKTLSIRITQEGNLEIRAPLGMPKGEIEAFLKEKAQWIETHRAKVLAEYA | -2.24 |
| HMHHDQQQITAELARIARNGLPGLTADNAIISRLDALNLLINIHDDRGADATPLRGLLPAIADELLRLT | -0.273 |
| HMHHIDTAWFRGKMREHRLTQEAVGQAIGLERSMVSKIIKGTVSFNARKASAWAQLLRVSESEILERVGI | -2.37 |
